Test [1] deals with T1, human FcγRIIb extracellular domain with C-terminal His-tag (human, UniProt P31994 43-217).
T1 construct: extracellular domain; also called hFcγR IIb
T1 sequence (looked up): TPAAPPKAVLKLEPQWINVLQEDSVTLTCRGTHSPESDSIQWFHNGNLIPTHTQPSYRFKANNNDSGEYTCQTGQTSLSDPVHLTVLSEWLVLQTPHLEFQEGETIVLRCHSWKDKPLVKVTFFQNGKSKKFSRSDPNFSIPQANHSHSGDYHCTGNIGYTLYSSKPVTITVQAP
Description: SPR; binding amount divided by that of 04H1656-G1m/04L1610-lam1. On the technique in general: SPR reads the build-up and loss of mass on a sensor chip optically.

In test [2] the target is T2, human FcγRIIIa F allotype extracellular domain with C-terminal His-tag (human, UniProt P08637 17-208).
T2 construct: extracellular domain; also called hFcγR IIIa F
Briefly: SPR; KD of 04H1656-G1m/04L1610-lam1 divided by KD of variant.

In test [3] the target is T3, human FcγRIa extracellular domain with C-terminal His-tag (human, UniProt P12314 16-292).
T3 construct: extracellular domain; also called hFcγR Ia; hFcγRIa
The description is as above.

The target of test [4] is T4, human FcγRIIa R allotype extracellular domain with C-terminal His-tag (human, UniProt P12318 34-217).
T4 construct: extracellular domain; also called hFcγR IIa R
T4 sequence (looked up): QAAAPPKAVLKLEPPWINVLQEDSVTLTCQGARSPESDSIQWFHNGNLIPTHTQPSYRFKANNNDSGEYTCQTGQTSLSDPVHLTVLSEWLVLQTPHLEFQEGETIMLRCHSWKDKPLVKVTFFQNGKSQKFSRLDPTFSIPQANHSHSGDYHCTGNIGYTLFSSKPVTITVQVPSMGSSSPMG
The test is described as above.

In test [5] the target is T5, human FcγRIIIa V allotype extracellular domain with C-terminal His-tag (human, UniProt P08637 17-208).
T5 construct: extracellular domain; also called hFcγR IIIa V
Described as above.

Test [6] has as its target T6, human FcγRIIa H allotype extracellular domain with C-terminal His-tag (human, UniProt P12318 34-217).
T6 construct: extracellular domain; also called hFcγR IIa H
T6 sequence (looked up): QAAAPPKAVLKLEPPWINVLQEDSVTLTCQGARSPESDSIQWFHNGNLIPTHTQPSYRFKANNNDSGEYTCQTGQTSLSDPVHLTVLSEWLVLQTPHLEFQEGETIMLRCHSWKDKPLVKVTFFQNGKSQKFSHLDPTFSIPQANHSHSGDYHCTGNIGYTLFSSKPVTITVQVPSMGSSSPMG
The test is described as above.

Test [7] addresses T7, human FcRn (human, UniProt P55899 24-290; P61769 21-119).
T7 construct: Prepared by the method of WO 2010/107110; also called hFcRn
The test is described as above.

The target in test [8] is T1, human FcγRIIb extracellular domain with …. Description: SPR; FcγRIIb bound amount per unit captured Ab.
Description: (§1) The interaction between the generated antibodies and human FcγRs was analyzed by the following method using Biacore T200. 50 mM Na-Phosphate, 150 mM NaCl, 0.05% Tween20 (pH 7.4) was used as the running buffer, and the assay was performed at 25° C. For the sensor chips, Series S SA (GE Healthcare) chips onto which CaptureSelect Human Fab-lambda Kinetics Biotin Conjugate (Thermo Fisher Scientific) was immobilized were used. The antibodies of interest were captured onto these chips and each FcγR diluted in the running buffer was allowed to interact with them. Chips were regenerated with 10 mM Glycine-HCl (pH 1.5) and 25 mM NaOH, and assay was performed by repeatedly capturing antibodies. The dissociation constants KD (mol/L) for FcγRs of each antibody were calculated using Biacore T200 Evaluation Software 2.0, using the 1:1 Langmuir binding model for FcγRIa and FcγRIIIa and the steady state affinity model for FcγRIIa. For FcγRIIb, the binding amount of FcγRIIb per unit amount of antibody was calculated by correcting the binding amount of FcγRIIb obtained from the sensorgram obtained by the measurement with the amount of antibody captured onto the chip surface.
In test [9] the target is T2, human FcγRIIIa F allotype extracellular …. Description: SPR Biacore T200, captured Ab, pH 7.4.
Description: as §1
The target of test [10] is T3, human FcγRIa extracellular domain with …. Description: SPR Biacore T200, captured Ab, pH 7.4.
Description: as §1
Test [11] concerns the target T4, human FcγRIIa R allotype extracellular …. Description: SPR Biacore T200, captured Ab, pH 7.4.
Description: as §1
In test [12] the target is T5, human FcγRIIIa V allotype extracellular …. Briefly: SPR Biacore T200, captured Ab, pH 7.4.
Description: as §1
Test [13] has as its target T6, human FcγRIIa H allotype extracellular …. Briefly: SPR Biacore T200, captured Ab, pH 7.4.
Description: as §1
Test [14] concerns the target T7, human FcRn. Description: SPR Biacore T200, captured Ab, pH 6.0, steady state.
Description: The interaction between the generated antibodies and human FcRn was analyzed by the following method using Biacore T200. 50 mM Na-Phosphate, 150 mM NaCl, 0.05% Tween20 (pH 6.0) was used as the running buffer, and the assay was performed at 25° C. For the sensor chip, Series S SA (GE Healthcare) chips onto which CaptureSelect Human Fab-lambda Kinetics Biotin Conjugate (Thermo Fisher Scientific) was immobilized were used. The antibodies of interest were captured onto these chips and FcRn diluted in the running buffer was allowed to interact with them. Chips were regenerated with 10 mM Glycine-HCl (pH 1.5) and 25 mM NaOH, and assay was performed by repeatedly capturing antibodies. The dissociation constant for FcRn of each antibody was calculated using the steady state model, using Biacore T200 Evaluation Software 2.0.

As a reminder, the Kd is the free concentration of one partner at which half of the binding sites on the other are occupied at equilibrium, for simple one-to-one binding. High values mean weaker binding, low ones tighter binding.

T7 sequence (P55899 24-290 limits assumed, chain 1 of 2): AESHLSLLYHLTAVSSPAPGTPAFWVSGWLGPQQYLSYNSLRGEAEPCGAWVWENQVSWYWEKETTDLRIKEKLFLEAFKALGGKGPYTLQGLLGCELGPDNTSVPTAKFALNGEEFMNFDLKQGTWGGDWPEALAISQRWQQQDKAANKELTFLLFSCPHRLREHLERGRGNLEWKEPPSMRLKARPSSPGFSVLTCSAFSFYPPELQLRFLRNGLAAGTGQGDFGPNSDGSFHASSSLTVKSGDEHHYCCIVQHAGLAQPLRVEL
T7 sequence (P61769 21-119 limits assumed, chain 2 of 2): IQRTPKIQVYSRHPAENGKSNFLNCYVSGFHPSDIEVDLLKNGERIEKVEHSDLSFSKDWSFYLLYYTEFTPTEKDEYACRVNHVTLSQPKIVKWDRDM
T2 sequence (P08637 17-208): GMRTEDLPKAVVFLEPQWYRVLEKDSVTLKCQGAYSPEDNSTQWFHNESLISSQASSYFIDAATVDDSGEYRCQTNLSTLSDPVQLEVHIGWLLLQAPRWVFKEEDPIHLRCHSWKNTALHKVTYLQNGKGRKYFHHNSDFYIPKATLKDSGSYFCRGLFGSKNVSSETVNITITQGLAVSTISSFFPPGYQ
T5 sequence (P08637 17-208 F176V): as the sequence (P08637 17-208) above, with F160V counted along it
T3 sequence (P12314 16-292): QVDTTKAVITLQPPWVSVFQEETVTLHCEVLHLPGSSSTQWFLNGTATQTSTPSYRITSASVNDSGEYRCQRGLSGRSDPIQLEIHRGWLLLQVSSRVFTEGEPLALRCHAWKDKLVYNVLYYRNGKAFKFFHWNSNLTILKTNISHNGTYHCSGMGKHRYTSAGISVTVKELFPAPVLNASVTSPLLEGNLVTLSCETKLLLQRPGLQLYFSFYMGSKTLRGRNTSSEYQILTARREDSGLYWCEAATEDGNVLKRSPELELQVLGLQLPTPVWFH

B1: 04H1654-KT462/04L1610-lam1//04H1656-HT441/04L1610-lam1 (antibody, human IgG1, lambda)
heavy 1: QVQLVESGGGVVQPGGSLRLSCAASGFTFSSKTMNWVRQAPGKGLEWVSSISTQSHYIYYARSVRGRFTISRDNAKNSLYLQMNSLRAEDTAVYYCARYGKREDMLWVFDYWGQGTLVTVSSASTKGPSVFPLAPSSKSTSGGTAALGCLVKDYFPEPVTVSWNSGALTSGVHTFPAVLQSSGLYSLSSVVTVPSSSLGTQTYICNVNHKPSNTKVDKRVEPKSCDKTHTCPPCPAPEFQWGPMVFLFPPKPKDVLMISRTPEVTCVVVDVSDEEPEVKFNWYVDGVEVHNAKTKPREEQYNATYRVVSVLPVLHQDWLNGKEYKCKVSNDALPAPIEKTISKAKGQPREPQVYTLPPSRKEMTKNQVSLTCLVKGFYPSDIAVEWESNGQPENNYKTTPPVLDSDGSFFLYSKLTVDKSRWQQGNVFSCSVMHEALHNHYTQKSLSLSP
heavy 2: QVQLVESGGGVVQPGGSLRLSCAASGFTFSSKTMNWVRQAPGKGLEWVSSISTQSHYIYYAESVRGRFTISRDNAKNSLYLQMNSLRAEDTAVYYCARYGAREDMLWVFDYWGQGTLVTVSSASTKGPSVFPLAPSSKSTSGGTAALGCLVKDYFPEPVTVSWNSGALTSGVHTFPAVLQSSGLYSLSSVVTVPSSSLGTQTYICNVNHKPSNTKVDKRVEPKSCDKTHTCPPCPAPELLAGPSVFLFPPKPKDVLMISRTPEVTCVVVDVSHEEPEVKFNWYVDGVEVHNAKTKPREEQYNATYRVVSVLPVLHQDWLNGKEYKCKVSNDALPAPIEETISKAKGQPREPQVYTLPPSREEMTKNQVSLTCLVKGFYPSDIAVEWESNGQPENNYKTTPPVLDSDGSFFLYSKLTVDKSRWQQGNVFSCSVMHEALHNHYTQESLSLSP
light: QSALTQPPSASGSPGQSVTISCEGPSTGVGDYNWVHWYQQHPGKAPKLMIYFTSKKPSGVPDRFSGSKSGNTASLTVSGLQAEDEADYYCQTYAAPLGPMFGGGTKLTVLGQPKAAPSVTLFPPSSEELQANKATLVCLISDFYPGAVTVAWKADSSPVKAGVETTTPSKQSNNKYAASSYLSLTPEQWKSHRSYSCQVTHEGSTVEKTVAPTECS
notes: Heterodimerized antibody
In [1], B1 displayed a Relative binding amount of 1.7. In addition, the “Relative value to KD between G1m and hFcγRs” value in test [2] came out at 58.1; in test [3], 0.8; in test [4] it was 9; in test [5] it was 218; in test [6], 13.5. Moreover, the “Relative value to KD between G1m and hFcRn” value in test [7] was 0.9. In [8], this molecule displayed a Binding amount of 0.014. The Kd in test [9] came to 17 nM; in [10], 0.12 nM; in [11], 180 nM; in test [12], 4.4 nM; in [13], 99 nM; in test [14], 2000 nM.

B2: 04H1654-KT473/04L1610-lam1//04H1656-HT451/04L1610-lam1 (antibody)
heavy 1: QVQLVESGGGVVQPGGSLRLSCAASGFTFSSKTMNWVRQAPGKGLEWVSSISTQSHYIYYARSVRGRFTISRDNAKNSLYLQMNSLRAEDTAVYYCARYGKREDMLWVFDYWGQGTLVTVSSASTKGPSVFPLAPSSKSTSGGTAALGCLVKDYFPEPVTVSWNSGALTSGVHTFPAVLQSSGLYSLSSVVTVPSSSLGTQTYICNVNHKPSNTKVDKRVEPKSCDKTHTCPPCPAPEFQWGPMVFLFPPKPKDVLMISRTPEVTCVVVDVSDEEPEVKFNWYVDGVEVHNAKTKPREEQYNATYRVVSVLPVLHQDWLNGKEYKCKVSNDALPAPIEKTISKAKGQPREPQVYTLPPSRKEMTKNQVSLTCLVKGFYPSDIAVEWESNGQPENNYKTTPPVLDSDGSFFLYSKLTVDKSRWQQGNVFSCSVMHEALHAHTTRKELSLSP
heavy 2: QVQLVESGGGVVQPGGSLRLSCAASGFTFSSKTMNWVRQAPGKGLEWVSSISTQSHYIYYAESVRGRFTISRDNAKNSLYLQMNSLRAEDTAVYYCARYGAREDMLWVFDYWGQGTLVTVSSASTKGPSVFPLAPSSKSTSGGTAALGCLVKDYFPEPVTVSWNSGALTSGVHTFPAVLQSSGLYSLSSVVTVPSSSLGTQTYICNVNHKPSNTKVDKRVEPKSCDKTHTCPPCPAPELLAGPSVFLFPPKPKDVLMISRTPEVTCVVVDVSHEEPEVKFNWYVDGVEVHNAKTKPREEQYNATYRVVSVLPVLHQDWLNGKEYKCKVSNDALPAPIEETISKAKGQPREPQVYTLPPSREEMTKNQVSLTCLVKGFYPSDIAVEWESNGQPENNYKTTPPVLDSDGSFFLYSKLTVDKSRWQQGNVFSCSVMHEALHAHTTREELSLSP
light: QSALTQPPSASGSPGQSVTISCEGPSTGVGDYNWVHWYQQHPGKAPKLMIYFTSKKPSGVPDRFSGSKSGNTASLTVSGLQAEDEADYYCQTYAAPLGPMFGGGTKLTVLGQPKAAPSVTLFPPSSEELQANKATLVCLISDFYPGAVTVAWKADSSPVKAGVETTTPSKQSNNKYAASSYLSLTPEQWKSHRSYSCQVTHEGSTVEKTVAPTECS
notes: Heterodimerized antibody with N434A/Y436T/Q438R/S440E; also called SW1610-ART5+ACT1
For the molecule B2, the Relative binding amount in test [1] was found to be 1.5. Also, the “Relative value to KD between G1m and hFcγRs” value in test [2] worked out at 50.8; in [3], 0.6; in test [4] it was 8.9; in test [5], 190; in test [6], 14.5. In test [7], the “Relative value to KD between G1m and hFcRn” value worked out at 3.2. This molecule had a Binding amount in test [8] of 0.012. Besides, the Kd in test [9] worked out at 20 nM; in test [10] it was 0.14 nM; in [11], 180 nM; in test [12] it was 5.1 nM; in test [13], 92 nM; in test [14] it was 540 nM.

These data come from patent US20260022175A1 (Chugai, published 2026).
